Where a chain is given by its changes, count along the chain named. Names and notes keep the numbering of the source. Blank lines part the entries; values can stand above or below the binder they belong to.
Tests used:
Experiment in all cases: flow cytometry, transfected 293T cells
[1] = target: T1, muCDH19(44-247)::huCDH19(250-364)::muCDH19(363-770) with Flag tag (construct F, Hu EC3) (human/mouse chimera)
T1 construct: leader left out; the entry starts at residue 44; also called C137911
Text: (§1) The experiment included assaying the anti-CDH19 antibodies against mouse Cadherin19 to determine suitability for binning on these human/mouse chimeras.

[2] = target: T2, huCDH19(44-249)::muCDH19(248-770) with Flag tag (construct C, Hu EC1-2) (human/mouse chimera)
T2 construct: leader left out; the entry starts at residue 44; also called C137896
Text: as §1

[3] = target: huCDH19(44-772) with Flag tag (construct A, Hu EC1-5) (human, UniProt Q9H159 44-772)
Text: as §1

[4] = target: T3, muCDH19(44-770) with Flag tag (construct I, Mu EC1-5) (mouse)
T3 construct: leader left out; the entry starts at residue 44; also called Mo EC1-5; mouse Cadherin19
T3 chain: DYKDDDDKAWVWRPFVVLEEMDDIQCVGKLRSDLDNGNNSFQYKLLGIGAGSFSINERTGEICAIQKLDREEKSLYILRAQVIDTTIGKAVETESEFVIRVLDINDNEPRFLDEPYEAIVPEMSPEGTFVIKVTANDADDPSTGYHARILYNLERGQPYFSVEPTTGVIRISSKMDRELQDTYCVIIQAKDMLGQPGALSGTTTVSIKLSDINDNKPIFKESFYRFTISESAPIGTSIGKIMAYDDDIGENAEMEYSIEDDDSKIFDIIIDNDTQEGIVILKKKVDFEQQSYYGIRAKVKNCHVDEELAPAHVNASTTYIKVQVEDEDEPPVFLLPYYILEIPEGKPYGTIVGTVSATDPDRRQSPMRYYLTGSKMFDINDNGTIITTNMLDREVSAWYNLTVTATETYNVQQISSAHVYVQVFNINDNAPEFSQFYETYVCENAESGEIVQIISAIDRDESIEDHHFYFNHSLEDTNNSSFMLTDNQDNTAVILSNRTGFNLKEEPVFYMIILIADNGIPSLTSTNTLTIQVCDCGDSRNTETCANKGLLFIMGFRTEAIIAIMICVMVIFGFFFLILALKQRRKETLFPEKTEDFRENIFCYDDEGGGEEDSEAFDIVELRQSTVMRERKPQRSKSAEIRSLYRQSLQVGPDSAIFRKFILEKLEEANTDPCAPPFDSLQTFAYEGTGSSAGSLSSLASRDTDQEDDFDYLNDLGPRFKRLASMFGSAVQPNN
Text: as §1

[5] = target: T4, muCDH19(44-461)::huCDH19(464-772) with Flag tag (construct H, Hu EC5) (human/mouse chimera)
T4 construct: leader left out; the entry starts at residue 44; also called C137915
T4 chain: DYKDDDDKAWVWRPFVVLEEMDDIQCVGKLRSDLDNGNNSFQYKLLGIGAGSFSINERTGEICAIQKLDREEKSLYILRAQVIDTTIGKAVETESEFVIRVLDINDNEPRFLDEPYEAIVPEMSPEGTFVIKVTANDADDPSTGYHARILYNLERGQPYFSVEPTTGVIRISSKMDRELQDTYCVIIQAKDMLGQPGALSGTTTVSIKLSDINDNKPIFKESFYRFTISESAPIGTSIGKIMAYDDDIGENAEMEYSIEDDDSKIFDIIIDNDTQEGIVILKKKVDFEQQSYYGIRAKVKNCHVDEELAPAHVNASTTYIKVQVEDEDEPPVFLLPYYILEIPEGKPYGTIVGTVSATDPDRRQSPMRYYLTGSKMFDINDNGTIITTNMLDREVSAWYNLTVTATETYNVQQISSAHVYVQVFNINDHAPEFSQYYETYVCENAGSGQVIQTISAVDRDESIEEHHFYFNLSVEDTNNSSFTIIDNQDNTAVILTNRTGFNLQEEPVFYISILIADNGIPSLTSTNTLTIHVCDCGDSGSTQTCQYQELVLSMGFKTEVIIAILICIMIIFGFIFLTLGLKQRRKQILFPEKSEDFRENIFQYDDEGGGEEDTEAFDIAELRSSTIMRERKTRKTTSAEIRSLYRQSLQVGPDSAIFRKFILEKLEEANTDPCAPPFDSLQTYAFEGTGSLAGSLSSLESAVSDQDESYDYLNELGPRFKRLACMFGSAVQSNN
Text: as §1

[6] = target: T5, muCDH19(44-139)::huCDH19(142-249)::muCDH19(248-770) with Flag tag (construct D, Hu EC2) (human/mouse chimera)
T5 construct: leader left out; the entry starts at residue 44; also called C137913
T5 chain: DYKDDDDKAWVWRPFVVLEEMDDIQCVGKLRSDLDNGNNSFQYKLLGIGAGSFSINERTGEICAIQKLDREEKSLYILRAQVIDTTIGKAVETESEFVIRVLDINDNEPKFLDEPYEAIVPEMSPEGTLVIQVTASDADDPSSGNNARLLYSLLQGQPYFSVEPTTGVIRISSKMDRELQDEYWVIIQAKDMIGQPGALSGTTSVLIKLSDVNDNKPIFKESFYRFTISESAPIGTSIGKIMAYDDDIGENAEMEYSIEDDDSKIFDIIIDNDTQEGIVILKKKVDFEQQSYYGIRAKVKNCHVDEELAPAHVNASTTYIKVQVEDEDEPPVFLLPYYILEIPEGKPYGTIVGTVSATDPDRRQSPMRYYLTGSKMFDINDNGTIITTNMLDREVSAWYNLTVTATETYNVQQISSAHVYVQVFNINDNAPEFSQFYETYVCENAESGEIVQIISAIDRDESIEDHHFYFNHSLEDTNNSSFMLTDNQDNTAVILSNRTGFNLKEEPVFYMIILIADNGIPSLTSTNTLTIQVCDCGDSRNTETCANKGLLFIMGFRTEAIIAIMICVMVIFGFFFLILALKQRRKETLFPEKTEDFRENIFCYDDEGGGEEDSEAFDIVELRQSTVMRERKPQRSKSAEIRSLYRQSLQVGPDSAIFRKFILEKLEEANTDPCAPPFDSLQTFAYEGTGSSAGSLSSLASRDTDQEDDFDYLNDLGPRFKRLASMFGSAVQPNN
Text: as §1

[7] = target: T6, huCDH19(44-141)::muCDH19(140-770) with Flag tag (construct B, Hu EC1) (human/mouse chimera)
T6 construct: leader left out; the entry starts at residue 44; also called C137897
Text: as §1

[8] = target: T7, muCDH19(44-362)::huCDH19(365-772) with Flag tag (construct G, Hu EC4-5) (human/mouse chimera)
T7 construct: leader left out; the entry starts at residue 44; also called C137917
T7 chain: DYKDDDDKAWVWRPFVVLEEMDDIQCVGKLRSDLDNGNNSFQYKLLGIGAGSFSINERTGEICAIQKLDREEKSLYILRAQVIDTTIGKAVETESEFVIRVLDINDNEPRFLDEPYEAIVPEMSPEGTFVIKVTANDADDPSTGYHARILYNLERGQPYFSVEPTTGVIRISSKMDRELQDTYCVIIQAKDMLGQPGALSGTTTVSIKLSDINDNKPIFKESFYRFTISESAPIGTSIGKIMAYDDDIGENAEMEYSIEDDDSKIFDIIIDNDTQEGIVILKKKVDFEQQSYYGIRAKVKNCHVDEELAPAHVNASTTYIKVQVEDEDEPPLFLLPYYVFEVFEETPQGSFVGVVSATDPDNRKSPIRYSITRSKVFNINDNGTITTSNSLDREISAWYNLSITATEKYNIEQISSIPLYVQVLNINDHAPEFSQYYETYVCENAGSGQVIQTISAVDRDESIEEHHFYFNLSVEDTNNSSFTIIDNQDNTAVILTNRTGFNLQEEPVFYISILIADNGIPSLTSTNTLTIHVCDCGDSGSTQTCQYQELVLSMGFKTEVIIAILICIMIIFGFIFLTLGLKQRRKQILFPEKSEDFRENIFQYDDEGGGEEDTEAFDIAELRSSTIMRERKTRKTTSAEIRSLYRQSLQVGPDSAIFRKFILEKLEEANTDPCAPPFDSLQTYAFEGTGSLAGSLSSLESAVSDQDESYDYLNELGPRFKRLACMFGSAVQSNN
Text: as §1

[9] = target: T8, muCDH19(44-139)::huCDH19(142-364)::muCDH19(363-770) with Flag tag (construct E, Hu EC2-3) (human/mouse chimera)
T8 construct: leader left out; the entry starts at residue 44; also called C137847
Text: as §1

binding result [1]: binds | binding result [2]: binds | binding result [3]: binds | binding result [4]: binds | binding result [5]: binds | binding result [6]: binds | binding result [7]: binds | binding result [8]: binds | binding result [9]: binds
B1: hu anti-<huCDH19> 2G6 (1-477)(R17G) VH::huIgG1z + 23A10.3 (1-231)(C42S) VL::huLLC-C2 (Ab ID 14304) (antibody, V domains shown)
VH: QVQLVESGGGVVQPGGSLRLSCAASGFTFSSYGMHWVRQAPGKGLEWVAFIWYDGSNKYYADSVKDRFTISRDNSKNTLYLQMKSLRAEDTAVYYCARRAGIIGTIGYYYGMDVWGQGTTVTVSS
VL: SYELTQPPSVSVSPGQTASITCSGDRLGEKYVSWYQQKPGQSPILVIYQDNKWPSGIPERFSGSNSGNTATLTISGTQAMDEADYYCQAWDSSTVVFGGGTKLTVLG
notes: light chain is that of 23A10.3 (C42S); Bin 4

binding result [1]: binds | binding result [2]: binds | binding result [3]: binds | binding result [4]: binds | binding result [5]: binds | binding result [6]: binds | binding result [7]: binds | binding result [8]: binds | binding result [9]: binds
B2: hu anti-<huCDH19> 2G6 (1-477)(R17G,D61E,D72E,K94N) VH::huIgG1z + 2G6 (1-234)(C42S,D110E) VL::huLLC-C1 (Ab ID 14039) (antibody, V domains shown)
VH: B1 VH with D54E, D62E, K84N
VL: B1 VL with V32T, K38R, I44L, N51T, W53R, D91E
notes: Engineered variant of 2G6; the entries already carry the changes; Bin 4

From patent publication US20220127354A1 (Amgen, published 2022)
